This is an account of results in patent publication US20200354457A1 (Hoffmann-La Roche, published 2020).

Experiment [1] addresses T1, soluble human Lag3-IgG1-Fc with biotinylated C-terminal Avi-tag (human, biotin on the C-terminal Avi-tag).
T1 construct: also called LAG3-Fc-avi; biotinylated LAG3-Fc antigen
In words: A375 MHCII competition ELISA at 3 µg/ml, biotinylated Lag3 250 ng/ml; competitor MHCII on A375 cells. In general terms: ELISA stands for enzyme-linked immunosorbent assay.

Experiment [2] addresses T1, soluble human Lag3-IgG1-Fc with …. In words: A375 MHCII competition ELISA, biotinylated Lag3 250 ng/ml; competitor MHCII on A375 cells.
In experiment [3] the target is T2, recombinant human LAG3 Fc Chimera Protein (R&D Systems, 2319-L3) (human, UniProt P18627 23-450).
T2 construct: Bought reagent
T2 sequence (looked up): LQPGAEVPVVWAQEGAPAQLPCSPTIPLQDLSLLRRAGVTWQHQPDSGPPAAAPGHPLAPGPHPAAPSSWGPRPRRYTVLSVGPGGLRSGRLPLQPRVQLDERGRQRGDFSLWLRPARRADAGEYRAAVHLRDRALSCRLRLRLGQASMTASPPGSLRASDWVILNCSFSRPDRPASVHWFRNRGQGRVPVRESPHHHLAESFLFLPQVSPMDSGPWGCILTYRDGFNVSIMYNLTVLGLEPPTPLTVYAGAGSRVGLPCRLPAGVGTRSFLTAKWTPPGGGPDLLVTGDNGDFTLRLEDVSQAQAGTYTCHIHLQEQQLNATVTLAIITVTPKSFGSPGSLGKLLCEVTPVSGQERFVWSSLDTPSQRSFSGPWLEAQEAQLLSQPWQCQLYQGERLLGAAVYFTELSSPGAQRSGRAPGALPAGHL
The experiment can be described thus: SPR (Biacore), aVH-Fc captured by anti-human Fc, human LAG-3 Fc chimera as analyte, 25 C; * poor fit. (Surface plasmon resonance follows binding to a sensor surface in real time, without labels.)

Experiment [4] has as its target T3, murine LAG3-Fc antigen (R&D Systems, 3328-L3-050) (murine, UniProt Q61790 24-442).
T3 construct: Bought reagent
T3 sequence (looked up): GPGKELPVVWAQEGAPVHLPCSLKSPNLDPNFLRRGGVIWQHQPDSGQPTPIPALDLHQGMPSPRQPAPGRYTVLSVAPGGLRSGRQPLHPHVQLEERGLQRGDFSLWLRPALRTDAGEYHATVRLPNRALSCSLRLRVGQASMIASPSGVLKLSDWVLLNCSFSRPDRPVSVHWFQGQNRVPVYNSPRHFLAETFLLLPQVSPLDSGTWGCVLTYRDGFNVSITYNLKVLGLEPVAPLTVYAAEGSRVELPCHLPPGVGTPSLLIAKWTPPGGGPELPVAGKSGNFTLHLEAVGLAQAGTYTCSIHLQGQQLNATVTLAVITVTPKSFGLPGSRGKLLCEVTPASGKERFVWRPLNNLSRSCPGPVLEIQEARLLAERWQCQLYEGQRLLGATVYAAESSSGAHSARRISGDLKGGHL
The experiment can be described thus: ELISA using murine LAG3-Fc antigen.

Experiment [5] has as its target T2, recombinant human LAG3 Fc Chimera …. In words: ELISA, plate coated with human LAG3 Fc chimera.
Experiment [6] has the same target. The experiment can be described thus: SPR (Biacore), aVH-Fc captured by anti-human Fc, human LAG-3 Fc chimera as analyte, 25 C.
Experiment [7] deals with T4, human LAG3 on recombinant CHO cells (human, UniProt P18627 23-525).
T4 construct: whole, on cells; also called Lag3 cells; recombinant CHO cells expressing Lag3
T4 sequence (looked up): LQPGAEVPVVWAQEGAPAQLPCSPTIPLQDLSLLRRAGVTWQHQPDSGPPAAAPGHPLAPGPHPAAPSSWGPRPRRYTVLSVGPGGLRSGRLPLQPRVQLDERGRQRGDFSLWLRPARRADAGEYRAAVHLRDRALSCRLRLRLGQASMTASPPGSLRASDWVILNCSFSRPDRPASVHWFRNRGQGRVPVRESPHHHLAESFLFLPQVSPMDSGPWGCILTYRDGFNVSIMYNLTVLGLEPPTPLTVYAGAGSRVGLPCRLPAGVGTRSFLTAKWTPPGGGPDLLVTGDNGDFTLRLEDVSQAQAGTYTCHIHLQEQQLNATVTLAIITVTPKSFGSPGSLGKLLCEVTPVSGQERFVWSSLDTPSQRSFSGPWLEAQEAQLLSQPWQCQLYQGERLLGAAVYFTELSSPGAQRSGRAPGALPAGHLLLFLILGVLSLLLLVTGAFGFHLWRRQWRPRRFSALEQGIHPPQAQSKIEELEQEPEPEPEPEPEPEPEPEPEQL
In words: cell ELISA on CHO cells expressing human LAG3.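 Further: bivalent Fc-format binders titrated in threefold steps from 6 µg/mL, incubated with the cells 2 h at 4 °C, bound antibody detected by HRP-coupled anti-human IgG.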

Several values for one entry are separate records, joined by “and”; a condition that tells them apart may be missing. Identical values can stand only once.

B1: bivalent P11A2 aVH-Fc (Fc fusion)
chain: EVQLVESGGGLVQPGGSLRLSCAASSFNIKDTYIGWVRRAPGKGTELVAEIACHEGTTRYADSVKGRFTISCDTSKNTAYLQMNSLRAEDTAVYYCANTEYDDIFDYWGQGTTVTVSSGGGGSGGGGSDKTHTCPPCPAPEAAGGPSVFLFPPKPKDTLMISRTPEVTCVVVDVSHEDPEVKFNWYVDGVEVHNAKTKPREEQYNSTYRVVSVLTVLHQDWLNGKEYKCKVSNKALGAPIEKTISKAKGQPREPQVYTLPPSRDELTKNQVSLTCLVKGFYPSDIAVEWESNGQPENNYKTTPPVLDSDGSFFLYSKLTVDKSRWQQGNVFSCSVMHEALHNHYTQKSLSLSPGK
Broadly, the % Inhibition is the drop in the measured response relative to a control, in per cent. Low values mean little suppression, high ones strong suppression. As a reminder, the IC50 is the concentration at which inhibition is half-maximal. Read a low IC50 as greater potency in that assay. The term koff denotes the first-order rate constant of dissociation. By EC50 is commonly meant the concentration giving half of the maximal effect. Take B1: the “% Inhibition” value in experiment [1] was found to be 92.4%. Moreover, the IC50 in experiment [2] was 0.0903 µg/mL and 1.2 nM. Besides, the koff in experiment [3] came to 0.0048 s⁻¹. Further, the binding result in experiment [4] is “no binding”. In addition, the results for the OD max in experiment [5] and in experiment [7] were 1.3 OD and 1.2 OD, respectively. Besides, the t1/2 in experiment [6] was 2.4 min. In addition, the concentration for a half-maximal effect (EC50) in experiment [7] is 0.0169 µg/mL and 0.2 nM.
